One block for each molecule: values may come before it.
Assays:
FilGAP (Homo sapiens) = FilGAP (Homo sapiens) (UniProt Q8N264); details: cited from earlier work
[1] = target: T1, FLAG-tagged full-length FLNa (filamin A), wild type (human, UniProt P21333 1-2647); experiment: pull-down; GST-His- or MBP-His-FilGAP constructs (various concentrations) with 25 nM FLAG-FLNa on FLAG-specific mAb M2 agarose; 50 mM Tris-HCl, 150 mM NaCl, 0.1% Triton X-100, 0.1 mM EGTA, pH 7.4, 1 h, 25°C; immunoblot for GST or MBP; details: both partners purified
T1 construct: filamin A (FLNa), human, full length; also called FLAG-FLNa; WT FLAG-FLNa; source: Sf9 insect cells (baculovirus), purified
T1 sequence (P21333 whole entry): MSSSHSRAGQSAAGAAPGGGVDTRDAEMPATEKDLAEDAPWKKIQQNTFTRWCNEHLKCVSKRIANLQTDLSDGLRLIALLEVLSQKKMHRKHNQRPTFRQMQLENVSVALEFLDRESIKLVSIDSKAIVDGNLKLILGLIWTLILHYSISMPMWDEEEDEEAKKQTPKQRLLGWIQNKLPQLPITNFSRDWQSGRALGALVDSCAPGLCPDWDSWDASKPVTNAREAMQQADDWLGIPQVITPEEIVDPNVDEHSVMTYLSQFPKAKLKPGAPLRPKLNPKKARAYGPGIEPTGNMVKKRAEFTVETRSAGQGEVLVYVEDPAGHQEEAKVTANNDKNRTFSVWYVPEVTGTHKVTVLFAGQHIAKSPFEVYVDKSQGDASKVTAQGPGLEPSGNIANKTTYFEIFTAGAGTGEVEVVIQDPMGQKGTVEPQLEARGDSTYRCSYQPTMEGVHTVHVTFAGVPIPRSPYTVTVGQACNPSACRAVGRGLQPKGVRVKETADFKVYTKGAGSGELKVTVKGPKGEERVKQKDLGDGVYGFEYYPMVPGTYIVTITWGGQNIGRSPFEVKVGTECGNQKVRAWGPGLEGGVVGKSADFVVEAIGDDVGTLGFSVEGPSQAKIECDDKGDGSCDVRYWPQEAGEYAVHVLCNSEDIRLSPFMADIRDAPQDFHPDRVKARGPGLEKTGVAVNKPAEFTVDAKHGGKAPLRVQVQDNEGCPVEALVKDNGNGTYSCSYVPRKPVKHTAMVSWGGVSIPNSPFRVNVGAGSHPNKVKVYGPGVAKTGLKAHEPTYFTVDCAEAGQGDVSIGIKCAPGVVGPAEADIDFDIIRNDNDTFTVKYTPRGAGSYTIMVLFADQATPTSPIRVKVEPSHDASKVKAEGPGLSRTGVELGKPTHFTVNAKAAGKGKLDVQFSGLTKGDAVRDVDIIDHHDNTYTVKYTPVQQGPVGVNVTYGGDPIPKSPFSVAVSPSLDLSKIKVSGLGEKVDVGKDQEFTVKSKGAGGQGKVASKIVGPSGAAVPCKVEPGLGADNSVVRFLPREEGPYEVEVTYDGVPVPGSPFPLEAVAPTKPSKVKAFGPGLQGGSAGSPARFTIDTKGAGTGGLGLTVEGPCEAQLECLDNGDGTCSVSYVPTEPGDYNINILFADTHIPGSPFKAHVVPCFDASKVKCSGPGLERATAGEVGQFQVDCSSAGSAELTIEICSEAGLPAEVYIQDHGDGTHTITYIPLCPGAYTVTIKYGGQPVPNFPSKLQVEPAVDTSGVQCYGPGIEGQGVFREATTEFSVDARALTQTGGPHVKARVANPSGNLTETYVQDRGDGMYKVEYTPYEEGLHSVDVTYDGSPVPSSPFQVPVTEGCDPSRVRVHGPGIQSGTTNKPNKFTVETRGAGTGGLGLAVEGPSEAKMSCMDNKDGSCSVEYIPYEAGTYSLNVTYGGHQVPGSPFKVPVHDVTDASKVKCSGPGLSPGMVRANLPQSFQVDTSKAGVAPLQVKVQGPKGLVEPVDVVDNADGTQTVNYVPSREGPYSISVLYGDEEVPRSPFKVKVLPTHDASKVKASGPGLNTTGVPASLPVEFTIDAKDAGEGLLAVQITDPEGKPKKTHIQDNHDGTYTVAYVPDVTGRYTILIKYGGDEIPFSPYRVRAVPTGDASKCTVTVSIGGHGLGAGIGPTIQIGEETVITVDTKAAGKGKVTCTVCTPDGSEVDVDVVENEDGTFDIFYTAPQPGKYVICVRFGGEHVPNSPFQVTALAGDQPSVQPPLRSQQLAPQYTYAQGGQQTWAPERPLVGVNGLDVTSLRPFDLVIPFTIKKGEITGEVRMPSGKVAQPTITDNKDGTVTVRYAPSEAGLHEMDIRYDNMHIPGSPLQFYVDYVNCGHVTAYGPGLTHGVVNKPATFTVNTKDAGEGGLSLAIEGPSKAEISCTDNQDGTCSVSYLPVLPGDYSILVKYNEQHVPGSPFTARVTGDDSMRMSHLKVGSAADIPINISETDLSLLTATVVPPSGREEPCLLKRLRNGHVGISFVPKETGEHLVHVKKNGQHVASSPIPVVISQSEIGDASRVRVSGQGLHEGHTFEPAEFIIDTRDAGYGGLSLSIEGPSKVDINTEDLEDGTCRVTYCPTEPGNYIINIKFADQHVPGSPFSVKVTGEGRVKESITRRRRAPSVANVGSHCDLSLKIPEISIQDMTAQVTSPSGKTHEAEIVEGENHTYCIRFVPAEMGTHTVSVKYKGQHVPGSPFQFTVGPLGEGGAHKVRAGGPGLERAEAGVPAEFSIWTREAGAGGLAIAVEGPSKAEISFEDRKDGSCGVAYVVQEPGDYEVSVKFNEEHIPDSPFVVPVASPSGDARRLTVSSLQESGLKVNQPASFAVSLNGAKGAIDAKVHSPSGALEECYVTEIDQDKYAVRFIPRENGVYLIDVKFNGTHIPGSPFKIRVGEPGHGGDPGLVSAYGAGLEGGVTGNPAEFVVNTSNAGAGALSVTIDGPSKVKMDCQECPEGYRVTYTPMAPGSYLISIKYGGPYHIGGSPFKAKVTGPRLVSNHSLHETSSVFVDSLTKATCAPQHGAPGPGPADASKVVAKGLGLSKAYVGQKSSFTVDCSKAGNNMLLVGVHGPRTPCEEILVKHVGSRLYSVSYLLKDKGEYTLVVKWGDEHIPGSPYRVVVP

[2] = target: T2, FLAG-FLNa L2439M (disease-related) (human, UniProt P21333 1-2647, L2439M); experiment: pull-down; full-length FilGAP or His-FilGAP lacking 649–725 (50 nM in Figure 1C) mixed with increasing amounts of wild-type or mutant FLAG-FLNa, precipitated with FLAG-specific mAb on agarose; immunoblot for FilGAP or the His tag; details: both partners purified
T2 construct: filamin A (FLNa), human, full length, transcript of the patient mutation 7315C>A; source: Sf9 cells, purified
T2 sequence (P21333 whole entry L2439M): as the sequence (P21333 whole entry) above, with L2439M counted along it

[3] = target: the molecule itself; experiment: SEC; Superose 6 10/300 GL, 20 mM Tris-HCl pH 7.4, 150 mM NaCl, 0.5 mM EGTA, 4°C; size from calibration with standards

Molecule: filamin A (from UniProt P21333)
Kd (FilGAP (Homo sapiens)): 200 nM

binding result [1]: binds
B1: GST-His-FilGAP 649–748 (C-terminal 100 residues) (domain or fragment, human, UniProt Q8N264 649-748, looked up)
chain: SSLKQEMTKQKIEYESRIKSLEQRNLTLETEMMSLHDELDQERKKFTMIEIKMRNAERAKEDAEKRNDMLQKEMEQFFSTFGELTVEPRRTERGNTIWIQ
notes: FilGAP, human, C-terminal 100 residues; also called GST-FilGAP fragment; source: E. coli (pGEX-4T-3-HT), purified

binding result [2]: binds
B2: full-length FilGAP, purified from Sf9 insect cells (natural protein, human, UniProt Q8N264 1-748, looked up)
chain: MEENNDSTENPQQGQGRQNAIKCGWLRKQGGFVKTWHTRWFVLKGDQLYYFKDEDETKPLGTIFLPGNKVSEHPCNEENPGKFLFEVVPGGDRDRMTANHESYLLMASTQNDMEDWVKSIRRVIWGPFGGGIFGQKLEDTVRYEKRYGNRLAPMLVEQCVDFIRQRGLKEEGLFRLPGQANLVKELQDAFDCGEKPSFDSNTDVHTVASLLKLYLRELPEPVIPYAKYEDFLSCAKLLSKEEEAGVKELAKQVKSLPVVNYNLLKYICRFLDEVQSYSGVNKMSVQNLATVFGPNILRPKVEDPLTIMEGTVVVQQLMSVMISKHDCLFPKDAELQSKPQDGVSNNNEIQKKATMGQLQNKENNNTKDSPSRQCSWDKSESPQRSSMNNGSPTALSGSKTNSPKNSVHKLDVSRSPPLMVKKNPAFNKGSGIVTNGSFSSSNAEGLEKTQTTPNGSLQARRSSSLKVSGTKMGTHSVQNGTVRMGILNSDTLGNPTNVRNMSWLPNGYVTLRDNKQKEQAGELGQHNRLSTYDNVHQQFSMMNLDDKQSIDSATWSTSSCEISLPENSNSCRSSTTTCPEQDFFGGNFEDPVLDGPPQDDLSHPRDYESKSDHRSVGGRSSRATSSSDNSETFVGNSSSNHSALHSLVSSLKQEMTKQKIEYESRIKSLEQRNLTLETEMMSLHDELDQERKKFTMIEIKMRNAERAKEDAEKRNDMLQKEMEQFFSTFGELTVEPRRTERGNTIWIQ
notes: FilGAP, human, full length; Tag-free FilGAP was prepared from His-FilGAP with TEV protease; also called Purified FilGAP; source: Sf9 cells, purified (Ni-NTA)

B3: His-tag full-length FilGAP (natural protein, human, UniProt Q8N264 1-748, looked up)
chain: MEENNDSTENPQQGQGRQNAIKCGWLRKQGGFVKTWHTRWFVLKGDQLYYFKDEDETKPLGTIFLPGNKVSEHPCNEENPGKFLFEVVPGGDRDRMTANHESYLLMASTQNDMEDWVKSIRRVIWGPFGGGIFGQKLEDTVRYEKRYGNRLAPMLVEQCVDFIRQRGLKEEGLFRLPGQANLVKELQDAFDCGEKPSFDSNTDVHTVASLLKLYLRELPEPVIPYAKYEDFLSCAKLLSKEEEAGVKELAKQVKSLPVVNYNLLKYICRFLDEVQSYSGVNKMSVQNLATVFGPNILRPKVEDPLTIMEGTVVVQQLMSVMISKHDCLFPKDAELQSKPQDGVSNNNEIQKKATMGQLQNKENNNTKDSPSRQCSWDKSESPQRSSMNNGSPTALSGSKTNSPKNSVHKLDVSRSPPLMVKKNPAFNKGSGIVTNGSFSSSNAEGLEKTQTTPNGSLQARRSSSLKVSGTKMGTHSVQNGTVRMGILNSDTLGNPTNVRNMSWLPNGYVTLRDNKQKEQAGELGQHNRLSTYDNVHQQFSMMNLDDKQSIDSATWSTSSCEISLPENSNSCRSSTTTCPEQDFFGGNFEDPVLDGPPQDDLSHPRDYESKSDHRSVGGRSSRATSSSDNSETFVGNSSSNHSALHSLVSSLKQEMTKQKIEYESRIKSLEQRNLTLETEMMSLHDELDQERKKFTMIEIKMRNAERAKEDAEKRNDMLQKEMEQFFSTFGELTVEPRRTERGNTIWIQ
notes: FilGAP, human, full length; also called His-FilGAP; His-tag FilGAP; source: Sf9 cells, purified (Ni-NTA)
stoichiometry N [3]: 2

— PMC2654154, “Molecular Basis of Filamin A-FilGAP Interaction and Its Impairment in Congenital Disorders Associated with Filamin A Mutations” (PLoS ONE, 2009)
